Test results published in the supplement of paper PMC9170038.

Tested on: MS2 coat protein
Test: apparent KD of MS2 coat protein; higher = weaker reporter binding
Conditions: Eterna round: R107
Method: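 RNA-MaP round R107: designed RNA switches with theophylline, tryptophan, arginine or FMN aptamers are transcribed on-chip within common flanks. They are titrated with SNAP-549-labelled MS2 coat protein in RNA-MaP buffer (100 mM Tris pH 7.5, 80 mM KCl, 4 mM MgCl2), without ligand or with the indicated ligand. Median apparent KD per design.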

[1] = input ligand: theophylline 20 uM
[2] = input ligand: theophylline 2 mM
[3] = input ligand: tryptophan 2.4 mM

Sequence	apparent KD of MS2 coat protein (input ligand: arginine 13.2 mM) [nM]	apparent KD of MS2 coat protein (input ligand: none) [nM]	apparent KD of MS2 coat protein [1] [nM]	apparent KD of MS2 coat protein [2] [nM]	apparent KD of MS2 coat protein [3] [nM]
UUUUUCGCGGGUGAUACCAGCAGAGUUGUACUGGUCUGGUACAUGAGGAUCACCCAUGUUUGCCCUUGGCAGCGCUCGGGAGAAG [#23 Exclusion-TheophyllineB]	29.3	19.8	32.1	44.4	24.1
AUAGUCUAGAGUGAUACCAGACUACAUGAGGAUCACCCAUGUAUCUUUUGGUUAUCAUGUGUCCCUUGGCAGCACGCAUGUAUAG [JR_ExcTheophyB_Sub013]	11.3		12.4		9.94
UCUUCGUUGGCGUCACAAUUCAUGCAAUGCCGAGGACCGGUACGGCCGCCACUCGGACUAAUACAUGAGGAUCACCCAUGUCGUG [theeternabot_exclusion_MS2_Trp_A_5]	37.9		111	219	
ACAUGAGGAUCACCCAUGUUGCUGACAGAAGGAGCGUGAUUAAGCACAGGUAGGUCGCUGUUGGUAUCGAGCGUUAGCUCGAUAC [SSArg A #8]	34.6	32	41.7	33.7	50
UUCGUUUGCGGAAGGAGCGACGGACAUCGGUGAACGACGCACAUGAGGAUCACCCAUGUACGUCAGGUAGGUCGCCGCUAAGAGU [Tibira]	15.5	18	22.3	25.2	19.8
ACAUGAGGAUCACCCAUGUUAAACAGGGUGCGAGGACCGGUACGGCCGCCACUCGGACAUUAUUACGAGUGAAUGGUAACGAUGU [#13 Exclusion Tryptophan A]	21.1		33.6	26.5	
GGGUGGUAGGCGGCCGCCACUGAUUUUCAUAUAUAUAUAACAUGAGGAUCACCCAUGUAGAUAUGCAGGACCGGGCCUGUUGUUU [aaaL]	26.6		39.6	37.7	
GGAUAGGACAGAAGGAGCGACAUGGCGACGAAAGUCGGACCUUCACAUGAGGAUCACCCAUGUCAGGUAGGUCGCUGUCCUAUCG [ArgXB 6 #MS2Gate #StaticStem]	38	48.4	55.2	52.4	46.1
GGCCGAUGGUGCGAUACCAGCUUGAGUGUACUGGCCAGGUACAUGAGGAUCACCCAUGUAAGCCCUUGGCAGCGCGUCAGAGGCC [#1 Exclusion - Theophylline B Attempt #21 (HarryS)]			15.5		11.3
GGCUGCGAUGGCGGAAAUUAUUUACAUAGGCGAGGACCGGUACGGCCGCCACUCGAACGUACAUGAGGAUCACCCAUGUGAUAAU [theeternabot_sameState_MS2_Trp_A_1]	29		59.9	70.8	
AAUGAGUGGUGGUCAAGUGAUCCUCAUGAACGAGGACCGGUACGGCCGCCACUCGAUAACAUGAGGAUCACCCAUGUAAUAAUAA [|T'-M'-Trp-Ms2|_Design8]	15.6		18.9	22.4	
ACGCUGAUUGAUUACAAUCAGCGAAAAGAUACCAGUGGGUAAUCCCACCCUUGGCAGCUUAAAUAUGAGGAUCACCCAUAUGGUA [TheoAS 18 #MS2Right #BothOrNeither #AlternativeMS2]	54.6	108	155	412	86.1
AUACAUGAGGAUCACCCAUGUUAUAGUGAAGGAGCGACAUUUAUGUCAGGUAGGUCGCACUAUUGUUUAAUGAUUCUUGGAUCUU [JR_ExcArginiA_Sub017]	16.9	15.2	22.4	15.1	18.5
AUUGUGAAGUCGGCCGCCACUGGUUAGUUUAACCUCAUGUAACAUGAGGAUCACCCAUGUAAUGACAGGACCGGGACAAUAGUAA [JR_ExcTryptoB_Sub015]	103		126	194	
CCGGCCAGGGCGGCCGCCACUGAACGUGGAAGAAAGAAAACAUGAGGAUCACCCAUGUAAAUCCUCAGGACCGGGCCAGGGCCGG	42.3	57.8	71	67	17.8
GGGCGAGUGGCGCGGCGUGCUCCGCUCCGUCGAGGACCGGUACGGCCGCCACUCGACAUGAGGAUCACCCAUGUGCGAGCUCGCG [#1 Exclusion - Tryptophan A Attempt #12 (HarryS)]	24.7	52.5	71.7	101	39.8
CAAUCAAUCAAUCAAUCAAUCAACCAUGAAGGAGCGUGGGAAACCACAGGUAGGUCGCAUGGAAAACAUGAGGAUCACCCAUGUA [Casablanca]	22.1	30.9	45.2	36.4	29.2
AGUCACAUGAGGAUCACCCAUGUGCCAGAACGAGGACCGGUACGGCCGCCACUCGAGGCGUCCGUCGACAAUAAUGUGAACUGCA [theeternabot_sameState_MS2_Trp_A_48]	11.1		16.7	11.6	
